# The supplement of paper PMC12042874
# ± gives the uncertainty stated by the source.
# Assay: amyloid nucleation score (Sup35N fusion, yeast selection) (log enrichment); library NNK2; higher = more nucleation; inactive = no reads after selection
# In short: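 Nucleation score is defined as the DiMSum log enrichment of output over input reads, with centring on the mode score of non-aggregating sequences. A minimum of 100 input reads was required for each sequence. Reads came from Illumina sequencing of plasmid inserts from psi-negative yeast expressing Sup35N fused to peptides of 20 random codons, induced with 100 μM copper sulfate for 24 hours and grown 7 days at 30°C on medium lacking adenine and uracil.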
row,Substance,amyloid nucleation score
1,SLTAVWDDLAMLKLWAEMEM,0.053 ± 1.1
2,SLTGSQSGQGDLCVLVRYNH,3.84 ± 0.12
3,SLTSSSICHRPHTCTVCV,-0.364 ± 0.33
4,SLVIYV,-1.42 ± 0.62
5,SLYFLTGWSFMMDQGVSTPC,6.934 ± 0.058
6,SLYLNKSSSSGRIQLYGLFT,0.049 ± 1.1
7,SLYVGFNRFFIRPVCCEVRG,-0.608 ± 1.1
8,SMAFREILLLMGSMLSCIRS,-0.956 ± 1
9,SMASGILCDAAYNACSQGCG,0.632 ± 0.48
10,SMDRLRRDGYLGSVVCYNRS,-0.935 ± 0.54
11,SMFLMSCTDGVFHNRNLHVI,-0.662 ± 0.44
12,SMGINSGGRWRADSVSVGLR,0.786 ± 0.23
13,SMLRY,0.171 ± 0.6
14,SMLSSMYFKFPL,2.07 ± 0.16
15,SMNFRTTSSHSDILYPALC,0.24 ± 0.48
16,SMRYDRDNHKHPFNIEAMRY,-0.096 ± 0.46
17,SMSLRTCSLSFVSWMKFKDG,0.095 ± 0.45
18,SMTTH,-0.777 ± 0.36
19,SMVFFGPFIFYVANPITSFV,5.54 ± 0.068
20,SMYPGLDT,-0.353 ± 0.79
21,SNDLTCTYVRIQCWAMEPAS,5.142 ± 0.039
22,SNFSMVCAVCV,0.454 ± 0.34
23,SNFVQSGG,0.138 ± 0.46
24,SNGFGCAEVSGYYVSN,-0.691 ± 0.79
25,SNGFREYCATICNGTGDRRG,0.651 ± 0.62

row,Substance,amyloid nucleation score
1,SNIYRCPVMSIRSVSHS,0.536 ± 0.66
2,SNLLWAKSGPKAVWKPGRWD,0.423 ± 0.41
3,SNSFVVFSRVVTRKFVCVLW,-0.691 ± 0.46
4,SNWCGFSSTIKSESY,inactive
5,SNYVFTNRGLIFRDFRVSDE,5.56 ± 0.086
6,SPFIRHLNGSICRDNYFYVG,3.03 ± 0.063
7,SPHLGLMCK,0.416 ± 0.8
8,SPKRFTCSGDCSR,-0.573 ± 0.78
9,SPSLVTNFVENGFFGVDLLS,inactive
10,SPSTAMFGPMYSVCIHCEYL,7.395 ± 0.051
11,SPTER,0.053 ± 0.65
12,SPWKTFMQVLWDTWVARVCL,0.515 ± 0.28
13,SQKLSIQYQLRYFILLVKPR,-0.704 ± 0.5
14,SQRHRAFTSWRGLMRYN,-0.476 ± 1.1
15,SQRRKQLEYHAVLWY,-0.289 ± 0.76
16,SQTMVITFFSRCDVQIVKIN,5.583 ± 0.03
17,SRAIECVRIYTFNSHSWFIA,-1.38 ± 1.1
18,SRDAKRALFDLDHRTRWDHK,4.62 ± 0.079
19,SREINITLGKTFYPSRMYGV,4.48 ± 0.05
20,SREYDCYLWRNLVWNCWMNW,5.638 ± 0.048
21,SRFCSIIITMNVNHLPV,5.79 ± 0.068
22,SRIIYMPPPVCHESLGKRPV,-0.296 ± 0.63
23,SRLGVFMYANVLWGKQSRND,6.267 ± 0.058
24,SRLVVRN,inactive
25,SRPFMIYREYVASSIVSNQL,-0.606 ± 0.29

row,Substance,amyloid nucleation score
1,SRPMTWGRKDVGSGSLQDYA,0.248 ± 0.33
2,SRTDRLDGCAWLLYDCTMGD,-0.211 ± 0.53
3,SRTDVPSTMLLSESRAVNYY,-0.569 ± 1.1
4,SRTYATRLQLM,0.007 ± 0.76
5,SRVEVNALVLISYYPVLDTA,5.736 ± 0.039
6,SRVIVTDFVNSNATA,0.218 ± 0.51
7,SSCGYLKTTFSKLSEAHCYR,-1.45 ± 1.1
8,SSCRGIEWRFQTGNITQWLG,-0.165 ± 0.23
9,SSDLAGQRLSLCWVLCTG,0.474 ± 0.53
10,SSFAARRR,0.276 ± 0.28
11,SSFLATVSVQCNDRYNSHRS,4.26 ± 0.064
12,SSIRLFCFTMAHVHMTDSHD,4.53 ± 0.11
13,SSIWPIPFYILGVFKVSSVW,inactive
14,SSKETGRRTVDRFQYMTRYR,1.94 ± 0.32
15,SSLFYERRIQLCVFI,3.63 ± 0.077
16,SSLNHNPGWTEIYELHLVGF,0.27 ± 0.8
17,SSMILLVYCPYVPWNRSRR,4.8 ± 0.041
18,SSQSRSISYGLGNCWSWWL,2.71 ± 0.081
19,SSRNASGYAWRVSNCVCVWG,7.9 ± 0.079
20,SSRQSW,0.082 ± 1
21,SSRTMRFNVRG,0.722 ± 0.26
22,SSSLSWLS,-0.609 ± 0.76
23,SSSWSNTHRFCLRTL,inactive
24,SSVISLNILFFMGEPENSLL,6.424 ± 0.05
25,SSVMPAVIAFACCCNKSTFA,-0.237 ± 0.38

row,Substance,amyloid nucleation score
1,SSYGIFVVGMLGSCRVQSRF,3.79 ± 0.041
2,SSYKTLPAMLVARMLINYTV,-1.02 ± 0.45
3,SSYLGMENQRLMRKESGCCL,0.09 ± 0.41
4,SSYTKMC,-0.934 ± 0.78
5,STCGEAVKTFLVGLFELFMV,0.452 ± 0.66
6,STCSTGHRSLRTKKRNSILS,4.34 ± 0.096
7,STCVCYGSFCEASLWASLDG,6.58 ± 0.075
8,STLVDGGTGYMCYFFAWHQS,inactive
9,STQYPTMVERLS,1.75 ± 0.3
10,STRDQQWMMRNRG,-0.381 ± 0.79
11,STSRCMRLHWGTFNYCSNIF,0.721 ± 0.35
12,STSVTMHSLSDF,-1.02 ± 0.78
13,STTHHARRFVSHESACLGAV,1.11 ± 0.17
14,STVPRVSLLLAPCQVIVAWE,5.449 ± 0.05
15,STVWVFRYYNNYWYDQRTLP,6.807 ± 0.054
16,STWHLFWSP,0.654 ± 0.26
17,STYPILR,2.02 ± 0.18
18,SVCGLWWLSHSVQRWSEWYS,5.99 ± 0.067
19,SVCYGSSIWN,-0.083 ± 0.39
20,SVDHLDSVFDYFHVRYKFIS,-1.09 ± 1.1
21,SVESIYLVVDVMMLGELCCA,4.849 ± 0.034
22,SVFYVSKSSLTPDLDSVFLS,-0.376 ± 0.48
23,SVGPLLYATMSMAGDSVAGA,0.004 ± 0.34
24,SVGSGPVSSLRRKHDRGDTP,0.253 ± 0.35
25,SVGYWTVDSVTSVATPLFLA,0.331 ± 0.35

row,Substance,amyloid nucleation score
1,SVIDFLLAYRKDLWCWDLT,0.19 ± 0.8
2,SVKLHSGGSWLRTWDWPRVC,1.55 ± 0.21
3,SVKQGN,0.132 ± 0.22
4,SVLAFKSFGSHCIGYIYVNL,inactive
5,SVLCEGTPEETTFLSDRLSG,1.09 ± 0.27
6,SVLLVSLDFSPITGYSKGGL,2.72 ± 0.082
7,SVLSLTKMFGFVADGSRIIK,-0.574 ± 0.5
8,SVMFMNSSFQRAT,-0.586 ± 0.42
9,SVNWTRLRECKPWMQVFNRG,0.208 ± 0.56
10,SVNYVCISLVVM,7.14 ± 0.072
11,SVQFRMIQDLRVAADGRPRA,5.545 ± 0.05
12,SVQSSWLNLLAVYIVFCCQR,-0.833 ± 0.54
13,SVRMVFIGNLSRGNWSALWS,7.627 ± 0.037
14,SVSETLWYDYIFKFVISVAN,-1.03 ± 0.63
15,SVVGQKVGGR,0.487 ± 0.33
16,SVVLFEYGWICEIIEGSDII,inactive
17,SVVLYMLVLLDADLSVKTRD,2.52 ± 0.06
18,SVVVCWGKFLSGVGAWLFHS,inactive
19,SVYLVG,-0.271 ± 0.65
20,SWATLRVCNIFCMITCSYFM,1.51 ± 0.15
21,SWCCTSIYHVRLW,9.427 ± 0.058
22,SWCLKRRTPHFVQVYHRNND,-0.095 ± 0.26
23,SWDHDYCGRWWCSNARGKIN,4.3 ± 0.07
24,SWFWVPGNQLLMTIEGFQWS,-0.281 ± 0.35
25,SWNTVVFSGKDNSILGVLAQ,-0.176 ± 0.45

row,Substance,amyloid nucleation score
1,SWSCMTRW,5.464 ± 0.049
2,SWVNMIMNMSLHTDIRYMLY,1.66 ± 0.25
3,SWVRVDHLNDMYRFELK,0.286 ± 0.46
4,SWWIGASEVVHGSKSEGI,-0.357 ± 1.1
5,SYACNRYKRMTAQIRNQGGM,0.225 ± 0.42
6,SYANCNLNVNTLREEVHERW,0.268 ± 0.62
7,SYDIFWILWLASCMLILYII,2.92 ± 0.099
8,SYDLELAT,0.667 ± 0.18
9,SYDPSVMAVGSH,-0.135 ± 0.33
10,SYEAGMHVNKGYLQVMCVDG,-0.086 ± 0.23
11,SYFGSAHKVAEAHL,0.377 ± 0.45
12,SYGWFCSRVIFWRSGNFYWK,inactive
13,SYHGVRLFDIHIGSLKFQQ,7.549 ± 0.054
14,SYILGILFVFYVCETKYLYL,0.328 ± 0.25
15,SYIWR,-0.551 ± 0.64
16,SYLLSKMQHFLMVTK,-1.32 ± 0.53
17,SYNFM,inactive
18,SYNKMMVDRFKYADLRDVRA,1.03 ± 0.38
19,SYPACRNRAVVRARGVVNLW,2.7 ± 0.18
20,SYSYDRVRKDTELARRNRAV,0.436 ± 0.44
21,SYTCSS,-0.211 ± 0.48
22,SYVNKWAECLSCTTEYTMSK,inactive
23,SYWGQIGRSHTSCLCPSDQV,inactive
24,SYWNLRQVVSIDDCMQSTFN,0.058 ± 1
25,SYWSLRLFCFQLCLDHYRNG,2.74 ± 0.21

row,Substance,amyloid nucleation score
1,SYYLALYLMEYFYLDDARLN,-1.2 ± 1
2,TACVSWGPSYWV,inactive
3,TAFSNRCLIQSQKSYLQFSV,inactive
4,TAGLYDKTLFYSFYLRYPKF,inactive
5,TAHGAQWVPDWWEPVTSAYW,1.21 ± 0.21
6,TAKSVVA,-0.703 ± 0.29
7,TARDVFIAVFA,0.089 ± 1.1
8,TAVVLTTGLHVIQVLWHN,2.94 ± 0.12
9,TAVWDL,0.745 ± 0.42
10,TCIDEGEVVLDFFNVIKVLC,inactive
11,TCIYSYRRNSCRIGCLRSWR,0.425 ± 0.6
12,TCNSSGPMMRCLIHWETRHR,5.17 ± 0.093
13,TCNWGMDG,0.553 ± 0.62
14,TCSFMMCLPTRLARIIDPWM,-0.322 ± 0.49
15,TCVVMAKGKLVVPVQEYPCV,2.62 ± 0.11
16,TCWKDYIYIFALVNYSGHRA,inactive
17,TCYTTSVRNSTS,0.082 ± 0.36
18,TDAGNKGNTTCNRRSACLFY,0.669 ± 0.74
19,TDASYNRMVTYFKWIISGYR,-1.39 ± 0.54
